Results on three molecules are retold here after patent US20230203188A1 (published 2023).

The target of experiment [1] is T1, full-length cyno SIRPβ1 (XP_005568598, clone PA2), on CHO cells (cynomolgus monkey).
T1 construct: whole, on cells; also called Cynomolgus SIRPβ1 XP_005568598 Clone PA2
The experiment can be described thus: flow cytometry on CHO cells expressing the target. As for the experimental part: (§1) Antibody binding to cells expressing full-length cynomolgus SIRPβ1 (XP_005568598) and SIRPβ1v3 (XP_005568593) is evaluated by flow cytometry. SIRPβ1- or SIRPβ31V3-expressing CHO cells are blocked with donkey IgG and incubated on ice with increasing concentrations of antibodies for 60 minutes, washed and stained with AF647-conjugated donkey F(ab′)₂ anti-human IgG secondary reagent. Cells are washed, fixed, and analyzed by flow cytometry. Median fluorescent intensity is determined and used as a measure of antibody binding.
In general terms: Flow cytometry measures light scatter and fluorescence of single cells or particles in a stream.

The target of experiment [2] is T2, full-length cyno SIRPβ1v3 (XP_005568593, clone 1HC6), on CHO cells (cynomolgus monkey, UniProt A0A2K5VYQ9).
T2 construct: whole, on cells; also called Cynomolgus SIRPβ1v3 XP-005568593 Clone 1HC6
T2 sequence: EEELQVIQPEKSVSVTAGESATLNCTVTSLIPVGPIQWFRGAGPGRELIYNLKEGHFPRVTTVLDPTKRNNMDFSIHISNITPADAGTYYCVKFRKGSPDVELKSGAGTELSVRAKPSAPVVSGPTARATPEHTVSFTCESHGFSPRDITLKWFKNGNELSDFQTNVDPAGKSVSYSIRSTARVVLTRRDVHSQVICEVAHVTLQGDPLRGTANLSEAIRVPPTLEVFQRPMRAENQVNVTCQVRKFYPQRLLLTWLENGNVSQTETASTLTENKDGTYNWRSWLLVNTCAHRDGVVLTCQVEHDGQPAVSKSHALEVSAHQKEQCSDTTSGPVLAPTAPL
Briefly: flow cytometry on CHO cells expressing the target. The method, then:
as §1

B1: Antibody A (antibody, human IgG1, kappa, L234A L235A)
heavy: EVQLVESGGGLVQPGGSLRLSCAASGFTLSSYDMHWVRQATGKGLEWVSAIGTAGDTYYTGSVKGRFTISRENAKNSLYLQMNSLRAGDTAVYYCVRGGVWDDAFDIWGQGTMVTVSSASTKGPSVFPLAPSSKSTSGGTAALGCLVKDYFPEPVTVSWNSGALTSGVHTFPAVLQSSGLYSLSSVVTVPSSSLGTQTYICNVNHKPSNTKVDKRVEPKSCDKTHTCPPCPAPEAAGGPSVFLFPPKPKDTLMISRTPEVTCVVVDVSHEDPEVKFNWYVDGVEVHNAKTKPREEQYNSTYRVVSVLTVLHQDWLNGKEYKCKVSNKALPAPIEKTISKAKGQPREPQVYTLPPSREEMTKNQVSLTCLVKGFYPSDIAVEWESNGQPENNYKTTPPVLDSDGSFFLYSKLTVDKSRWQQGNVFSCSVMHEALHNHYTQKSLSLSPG
light: DIQMTQSPSSLSASVGDRVTITCRASQDINNYLAWFQQKPGKAPKSLIYTASSLHSGVPSKFSGSGSGTDFTLTISSLQPEDFATYYCQQYVSYPYTFGQGTKLEIKRTVAAPSVFIFPPSDEQLKSGTASVVCLLNNFYPREAKVQWKVDNALQSGNSQESVTEQDSKDSTYSLSSTLTLSKADYEKHKVYACEVTHQGLSSPVTKSFNRGEC
notes: human IgG1 (LALA) backbone, kappa
As usually defined, the EC50 is the concentration that produces a half-maximal response. Read a low EC50 as greater potency. As to B1, the EC50 in experiment [1] turned out to be 0.7 nM.

B2: Antibody A10 (antibody, human IgG1, kappa, L234A L235A)
heavy: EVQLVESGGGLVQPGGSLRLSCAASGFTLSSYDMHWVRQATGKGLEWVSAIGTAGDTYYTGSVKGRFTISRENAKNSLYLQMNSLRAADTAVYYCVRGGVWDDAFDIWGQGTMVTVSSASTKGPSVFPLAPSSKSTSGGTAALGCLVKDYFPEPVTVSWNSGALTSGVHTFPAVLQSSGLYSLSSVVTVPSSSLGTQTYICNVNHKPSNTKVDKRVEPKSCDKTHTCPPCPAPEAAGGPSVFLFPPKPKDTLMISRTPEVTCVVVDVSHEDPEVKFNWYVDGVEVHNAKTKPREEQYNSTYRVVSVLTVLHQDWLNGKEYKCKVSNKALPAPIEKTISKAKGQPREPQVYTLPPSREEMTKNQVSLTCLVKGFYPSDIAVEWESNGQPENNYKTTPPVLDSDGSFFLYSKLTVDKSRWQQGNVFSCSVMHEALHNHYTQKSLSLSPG
light: DIQMTQSPSSLSASVGDRVTITCRASQDINNYLAWFQQKPGKAPKSLIYTASSLHSGVPSKFSGSGSGTDFTLTISSLQPEDFATYYCQQYVSYPYTFGQGTKLEIKRTVAAPSVFIFPPSDEQLKSGTASVVCLLNNFYPREAKVQWKVDNALQSGNSQESVTEQDSKDSTYSLSSTLTLSKADYEKHKVYACEVTHQGLSSPVTKSFNRGEC
notes: engineered variant of Antibody A; IgG1 (LALA)
Regarding B2, a half-maximal effect in experiment [1] (EC50) was put at 0.6 nM.

B3: KWAR23 (antibody, V domains shown)
VH: EVQLQQSGAELVKPGASVKLSCTASGFNIKDYYIHWVQQRTEQGLEWIGRIDPEDGETKYAPKFQDKATITADTSSNTAYLHLSSLTSEDTAVYYCARWGAYWGQGTLVTVSS
VL: QIVLTQSPAIMSASPGEKVTLTCSASSSVSSSYLYWYQQKPGSSPKLWIYSTSNLASGVPARFSGSGSGTSYSLTISSMEAEDAASYFCHQWSSYPRTFGAGTKLELK
In experiment [2], B3 registered an EC50 of 0.4 nM.
